The results in this text go back to paper PMC4902875 (ACS chemical biology, 2016).

The data set deals with the molecule itself. Kind of data set: crystal structure.

B1: BexE (enzyme, Amycolotopsis orientalis sp. vinerea, UniProt D7RFJ3 1-487, looked up)
chain: MDAPVVIAGAGPAGLMLAGELRLAGIGVVVLERLPARTGESRGLGFTARTMEVFDQRGLLRRFGEVQTSDQGHFGGIPVDFGLLDGAHQAAKTIPQSATEAVLEAWAGELGADIRRGHELTGVRDDGDGVAVTVRGPAGEHVLRAGWLVGCDGGRSAVRKAVGFDFPGTAATREMFLADLRGVELEPRMIGESLPGGMVMVGPLPGGVTRIIVCERDAPPRRRTGPPPFHEVADAWKRITGIDISAAEPVWLSAFGDATRQVTEYRRGRVLLAGDAAHVHLPAGGQGMNAGIQDAVNLGWKLAAVVRGTARADLLDTYHGERHPVGVRLLMNTRAQGLLFLNGAEMQPLRDVLAELTGYPDVARHLAAMVSGLEIAYDVGGGSHPWLGRRLPRLELDRGGRPSSTAELLRPARGLLLDFAGNAALRDRAAPWAGRIDVVTARPAAGRVPGATTAVLVRPDGHVAWAAPGTHADLPMALERWFGPAPR
As for B1, the binding result is “binds”.
